# From article PMC6695498
# What was measured:
# [1] = target: Arkadia (RING finger protein 111, RNF111), wild type, expressed in S. cerevisiae (human) (UniProt Q6ZNA4)
# FLAG-SUMO2-GFP-COMP-HA = assay: native gel or EMSA; native PAGE of the GFP-COMP substrates expressed in S. cerevisiae
# SUMO1-GFP-COMP-HA = assay: as above
# [2] = target: SUMO-binding domain of Arkadia (residues 285–416) with mutations in the SOB motif (SOB*) (murine) (UniProt Q99ML9); assay: ITC
# SUMO-binding domain of Arkadia (residues 285–416) with mutations in the SOB motif (SOB*) (murine), sequence (Q99ML9 285-416, stated change not applied): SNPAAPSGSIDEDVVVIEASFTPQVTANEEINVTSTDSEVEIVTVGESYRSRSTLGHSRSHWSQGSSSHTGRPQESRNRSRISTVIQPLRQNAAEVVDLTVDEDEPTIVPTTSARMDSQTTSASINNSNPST
# Arkadia (RING finger protein 111, RNF111), wild type, expressed in S. cerevisiae (human), sequence (Q6ZNA4 whole entry): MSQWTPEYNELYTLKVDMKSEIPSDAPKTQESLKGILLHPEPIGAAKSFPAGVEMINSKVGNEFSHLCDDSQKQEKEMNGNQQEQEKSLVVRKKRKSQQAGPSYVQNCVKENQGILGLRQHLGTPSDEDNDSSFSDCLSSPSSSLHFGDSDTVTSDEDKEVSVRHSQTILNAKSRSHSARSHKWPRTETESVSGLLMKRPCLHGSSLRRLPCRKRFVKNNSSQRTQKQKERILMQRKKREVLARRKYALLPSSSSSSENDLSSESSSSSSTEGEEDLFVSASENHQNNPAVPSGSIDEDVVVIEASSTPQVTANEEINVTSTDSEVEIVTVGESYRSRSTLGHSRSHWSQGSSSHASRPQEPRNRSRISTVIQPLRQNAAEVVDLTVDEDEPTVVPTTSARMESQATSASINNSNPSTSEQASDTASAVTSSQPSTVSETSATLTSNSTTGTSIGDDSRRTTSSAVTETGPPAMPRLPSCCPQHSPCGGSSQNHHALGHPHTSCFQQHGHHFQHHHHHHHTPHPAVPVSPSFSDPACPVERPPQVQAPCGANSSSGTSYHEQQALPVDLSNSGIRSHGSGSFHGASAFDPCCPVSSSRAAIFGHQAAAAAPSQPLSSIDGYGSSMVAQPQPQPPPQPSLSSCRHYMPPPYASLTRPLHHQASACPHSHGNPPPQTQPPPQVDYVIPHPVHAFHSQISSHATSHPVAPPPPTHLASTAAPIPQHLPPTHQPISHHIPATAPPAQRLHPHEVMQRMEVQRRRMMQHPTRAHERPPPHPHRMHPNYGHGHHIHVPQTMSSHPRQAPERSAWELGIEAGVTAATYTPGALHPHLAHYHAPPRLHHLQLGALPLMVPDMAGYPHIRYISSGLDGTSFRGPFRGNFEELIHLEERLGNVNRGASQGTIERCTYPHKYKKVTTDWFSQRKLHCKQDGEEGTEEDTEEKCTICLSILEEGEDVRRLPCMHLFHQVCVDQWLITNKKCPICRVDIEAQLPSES
Substance,"steady-state level of the reporter in S. cerevisiae co-expressing Arkadia, against the vector control (quantitative anti-HA Western blot) [1]",Kd [2],also measured
FLAG-SUMO1-3xSUMO2-GFP-HA,25%,,
FLAG-SUMO2-GFP-COMP-HA,,,stoichiometry N (FLAG-SUMO2-GFP-COMP-HA): 5
SUMO1-GFP-COMP-HA,,,stoichiometry N (SUMO1-GFP-COMP-HA): 5
linear SUMO2 trimer (tri-SUMO2-ΔN11) (from UniProt P61956 12-95; P61956 12-95; P61956 12-95),,11.1 µM,

# The next lines start with results.
"steady-state level of the reporter in S. cerevisiae co-expressing Arkadia, against the vector control (quantitative anti-HA Western blot) [1]",Kd [2],Substance,also measured
60%,,FLAG-4xSUMO2-GFP-HA (from UniProt P61956 12-95; P61956 12-95; P61956 12-95),
,12.4 µM,linear SUMO1-capped SUMO2 trimer (SUMO1-ΔN15 followed by two SUMO2-ΔN11) (from UniProt P63165 16-101; P61956 12-95; P61956 12-95),
